Experimental data taken from US20200045945A1.
“And” between values parts separate entries of the source, which are not always exact repeats. Identical values can stand only once.

Key:
[1] = molecular target: wild type (full-length, unmodified) porcine CD163 (pig) (UniProt Q2VL90); experiment: flow cytometry on PMMs of pig 628 (wild type)
[2] = molecular target: wild type (full-length, unmodified) porcine CD163 (pig) (UniProt Q2VL90); experiment: flow cytometry on PAMs of pig 628 (wild type)
[3] = molecular target: CD163 on macrophages of heterozygous pigs 627 and 634 (both the full-length and the ΔSRCR5 protein); experiment: flow cytometry on PAMs of pig 634 (heterozygous)
[4] = molecular target: ΔSRCR5 CD163 (porcine CD163 with the SRCR5 domain deleted) (pig) (UniProt Q2VL90); experiment: flow cytometry on PMMs of pig 629 (ΔSRCR5)
[5] = molecular target: CD163 on macrophages of heterozygous pigs 627 and 634 (both the full-length and the ΔSRCR5 protein); experiment: flow cytometry on PMMs of pig 634 (heterozygous)
[6] = molecular target: ΔSRCR5 CD163 (porcine CD163 with the SRCR5 domain deleted) (pig) (UniProt Q2VL90); experiment: flow cytometry on PAMs of pig 630 (ΔSRCR5)
[7] = molecular target: ΔSRCR5 CD163 (porcine CD163 with the SRCR5 domain deleted) (pig) (UniProt Q2VL90); experiment: flow cytometry on PMMs of pig 630 (ΔSRCR5)
[8] = molecular target: CD163 on macrophages of heterozygous pigs 627 and 634 (both the full-length and the ΔSRCR5 protein); experiment: flow cytometry on PAMs of pig 627 (heterozygous)
[9] = molecular target: wild type (full-length, unmodified) porcine CD163 (pig) (UniProt Q2VL90); experiment: flow cytometry on PAMs of pig 633 (wild type)
[10] = molecular target: ΔSRCR5 CD163 (porcine CD163 with the SRCR5 domain deleted) (pig) (UniProt Q2VL90); experiment: flow cytometry on PAMs of pig 629 (ΔSRCR5)
[11] = molecular target: wild type (full-length, unmodified) porcine CD163 (pig) (UniProt Q2VL90); experiment: flow cytometry on PMMs of pig 633 (wild type)
[12] = molecular target: CD163 on macrophages of heterozygous pigs 627 and 634 (both the full-length and the ΔSRCR5 protein); experiment: flow cytometry on PMMs of pig 627 (heterozygous)
[13] = molecular target: CD163 on macrophages of all six pigs 628, 633, 627, 634, 629, 630 (wild type, heterozygous and ΔSRCR5); experiment: flow cytometry on PMMs, isotype control staining of the six pigs
[14] = molecular target: CD163 on macrophages of all six pigs 628, 633, 627, 634, 629, 630 (wild type, heterozygous and ΔSRCR5); experiment: flow cytometry on PAMs, isotype control staining of the six pigs
[15] = molecular target: ΔSRCR5 CD163 (porcine CD163 with the SRCR5 domain deleted) (pig) (UniProt Q2VL90); experiment: cell-based or functional assay
[16] = molecular target: wild type (full-length, unmodified) porcine CD163 (pig) (UniProt Q2VL90); experiment: cell-based or functional assay
[17] = molecular target: CD163 on macrophages of heterozygous pigs 627 and 634 (both the full-length and the ΔSRCR5 protein); experiment: cell-based or functional assay
[18] = molecular target: CD163 on macrophages of all six pigs 628, 633, 627, 634, 629, 630 (wild type, heterozygous and ΔSRCR5); experiment: cell-based or functional assay

mouse anti-pig CD163 antibody, clone 2A10/11 (AbD Serotec, MCA2311PE)
median of CD163 fluorescence intensity [1]: 23.3 | median of CD163 fluorescence intensity [2]: 35.9 | median of CD163 fluorescence intensity [3]: 24.4 | median of CD163 fluorescence intensity [4]: 18.8 | median of CD163 fluorescence intensity [5]: 16.5 | median of CD163 fluorescence intensity [6]: 26.7 | median of CD163 fluorescence intensity [7]: 17.2 | median of CD163 fluorescence intensity [8]: 26.4 | median of CD163 fluorescence intensity [9]: 22.7 | median of CD163 fluorescence intensity [10]: 17.9 | median of CD163 fluorescence intensity [11]: 16.7 | median of CD163 fluorescence intensity [12]: 18.3

mouse IgG1 or IgG2b negative control (AbD Serotec, MCA928PE, MCA691F, or Sigma, F6397) (antibody)
median of fluorescence intensity [13]: 1.88 to 3.79 | median of fluorescence intensity [14]: 2.13 to 3.84

Alexa Fluor 488-labelled hemoglobin-haptoglobin complex (HbAF488-Hp) (from UniProt P69905 2-142; P68871 2-147; P00738 19-406) (ligand)
medians of green fluorescence, HbAF488-Hp uptake into PMMs by FACS, animal 629 (ΔSRCR5) [15]: 340 | medians of green fluorescence, HbAF488-Hp uptake into PMMs by FACS, animal 630 (ΔSRCR5) [15]: 405 | medians of green fluorescence, HbAF488-Hp uptake into PMMs by FACS, animal 628 (wild type) [16]: 329 | medians of green fluorescence, HbAF488-Hp uptake into PMMs by FACS, animal 633 (wild type) [16]: 305 | medians of green fluorescence, HbAF488-Hp uptake into PMMs by FACS, animal 627 (heterozygous) [17]: 329 | medians of green fluorescence, HbAF488-Hp uptake into PMMs by FACS, animal 634 (heterozygous) [17]: 366

hemoglobin-haptoglobin complex (Hb-Hp) (from UniProt P69905 2-142; P68871 2-147; P00738 19-406) (ligand)
HO-1 mRNA upregulation in PMMs after 24 h with Hb-Hp, RT-qPCR [18]: 2 fold and 6 fold
